x50 (time, percent of γ-TuRC-RhodMTs generating branches on Augmin-488MTs and percent of γ-TuRC-containing RhodMTs that terminate data for 1 substance are collected here from PMC6959987.

In experiment [1] the target is Augmin-GFP (purified mitotic Augmin complex) (Drosophila | Drosophila (endogenous in embryos)) (UniProt Q9W0G7).
Experiment [2] has the same target. Briefly: fluorescence microscopy of junctions between microtubules loaded with purified complexes; as the junction assay, but with HiLyte 647-labelled GMPCPP MT seeds (1:10) to mark the minus ends.
For experiment [3] the target is unchanged. Briefly: fluorescence microscopy of junctions between microtubules loaded with purified complexes; taxol-stabilised Rhodamine-MTs incubated with γ-TuRC-GFP and HiLyte Fluor 488-MTs incubated with Augmin-GFP, each pelleted through 15% glycerol, mixed 1:1 for 10 min at room temperature, fixed and ….

For “γ-TuRC-GFP (purified mitotic γ-Tubulin Ring Complex) (from UniProt P42271 1-457; P42271 1-457)”, the x50 (time at which 50% of Tubulin polymerisation was achieved) with Augmin-GFP added to γ-TuRC-GFP; γ-TuRC-GFP alone 16.5 mins, control 31.5mins in experiment [1] was 9.5 min. In experiment [2], this substance yielded a percent of γ-TuRC-RhodMTs generating branches on Augmin-488MTs of 64%. This substance yielded a percent of γ-TuRC-containing RhodMTs that terminate at an Augmin-containing 488MT in experiment [3] of 55%.
